No end group written: not given here.
Key:
[1] = biological target: T1, Human fibrinogen (Homo sapiens, UniProt P02671+P02675+P02679); assay: Fibrinogen recovery from peptide columns (acetic acid elution, A280 of eluted peak); format: binding
T1 construct: purchased Enzymes Research Labs (South Bend, Ind.)
T1 sequence (P02671 20-629 isoform P02671-2 limits assumed): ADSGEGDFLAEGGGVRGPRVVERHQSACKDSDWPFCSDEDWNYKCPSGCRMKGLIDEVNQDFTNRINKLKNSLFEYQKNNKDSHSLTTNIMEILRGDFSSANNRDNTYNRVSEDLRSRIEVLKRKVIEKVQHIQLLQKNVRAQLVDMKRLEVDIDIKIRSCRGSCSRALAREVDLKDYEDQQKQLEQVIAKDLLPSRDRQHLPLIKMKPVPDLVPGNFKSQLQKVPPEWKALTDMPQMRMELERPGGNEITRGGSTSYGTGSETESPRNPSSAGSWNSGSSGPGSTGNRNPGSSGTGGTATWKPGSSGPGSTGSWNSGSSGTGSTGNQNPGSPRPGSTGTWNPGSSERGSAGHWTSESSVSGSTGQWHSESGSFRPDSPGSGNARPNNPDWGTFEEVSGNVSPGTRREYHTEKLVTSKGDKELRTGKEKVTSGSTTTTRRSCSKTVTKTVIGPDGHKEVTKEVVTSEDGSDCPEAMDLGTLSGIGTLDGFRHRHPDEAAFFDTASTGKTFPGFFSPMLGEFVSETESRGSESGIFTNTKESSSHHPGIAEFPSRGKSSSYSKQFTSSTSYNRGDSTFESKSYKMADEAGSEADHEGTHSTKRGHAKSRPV
T1 sequence (P02675 31-491): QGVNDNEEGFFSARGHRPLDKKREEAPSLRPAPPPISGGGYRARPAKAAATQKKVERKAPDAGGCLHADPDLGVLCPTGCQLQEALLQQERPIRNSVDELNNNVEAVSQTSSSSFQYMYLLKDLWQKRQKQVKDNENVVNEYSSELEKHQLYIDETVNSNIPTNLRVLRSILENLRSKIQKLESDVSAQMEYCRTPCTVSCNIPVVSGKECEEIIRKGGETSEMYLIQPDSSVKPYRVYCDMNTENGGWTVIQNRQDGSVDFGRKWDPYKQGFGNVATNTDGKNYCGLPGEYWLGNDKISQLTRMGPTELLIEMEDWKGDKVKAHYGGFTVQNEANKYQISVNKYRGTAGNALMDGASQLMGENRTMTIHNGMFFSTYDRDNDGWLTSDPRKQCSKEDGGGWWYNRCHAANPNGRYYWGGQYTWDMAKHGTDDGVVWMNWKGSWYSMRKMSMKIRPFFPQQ
T1 sequence (P02679 27-437 isoform P02679-2 limits assumed): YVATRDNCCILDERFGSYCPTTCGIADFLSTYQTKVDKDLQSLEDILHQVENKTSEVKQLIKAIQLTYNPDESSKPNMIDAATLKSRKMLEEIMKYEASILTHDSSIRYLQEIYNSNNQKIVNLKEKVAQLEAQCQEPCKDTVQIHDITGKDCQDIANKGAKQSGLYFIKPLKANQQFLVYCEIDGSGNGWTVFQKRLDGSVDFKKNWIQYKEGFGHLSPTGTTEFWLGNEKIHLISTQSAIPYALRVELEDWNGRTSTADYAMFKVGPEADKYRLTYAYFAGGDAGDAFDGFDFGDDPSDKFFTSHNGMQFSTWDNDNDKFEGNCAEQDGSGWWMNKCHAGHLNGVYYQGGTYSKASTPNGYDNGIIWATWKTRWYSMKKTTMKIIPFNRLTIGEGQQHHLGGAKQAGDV
Protocol: (§1) Dried peptide resins were packed into 0.6 ml columns (0.4 cm×5 cm, Thomson, Va.), and evaluated on a Waters HPLC-system (Milford, Mass.) with a UV-detector (Knauer, Germany) monitoring at 280 nm. The columns were conditioned with over 5 volumes of 20% ethanol in water, followed by a minimum of 5 volumes of water.
(§2) Human fibrinogen was purchased from Enzymes Research Labs (South Bend, Ind.), and 25% human serum albumin (HSA) was a donation from the Bayer Corporation (Clayton, N.C.). The following buffers were used for both dissolving fibrinogen and diluting HSA.
(§3) This column was equilibrated in Buffer A, and the following program was used for each column run: From time 0-15 minutes, Buffer A was applied. At time 5 minutes, a 50 μl sample dissolved in buffer A was injected onto the column with a 100 μl sample loop. From time 15-20 minutes, bound protein was step-eluted by switching to 0.1M acetic acid, pH 2.9, followed by 0.4M acetic acid, pH 2.6, from time 20-21 minutes. The column was then re-equilibrated with Buffer A from time 21-30 minutes. During the column run, the flow rate was 1 ml/min from time 0-21 minutes; it was increased to 2 ml/min from time 21-30 minutes.
(§4) In total, seven injections were made: #1 Buffer A (blank); #2 100 μg/μl HSA; #3 20 μg/μl Fibrinogen; #4 Mixture of 5 μg/μl Fibrinogen and 90 μg/μl HSA; #5 Mixture of 10 μg/μl Fibrinogen and 75 μg/μl HSA; #6 Mixture of 20 μg/μl Fibrinogen and 50 μg/μl HSA; #7 20 μg/μl Fibrinogen.
(§5) After equilibrating in Buffer B, the following program was used for each column run: From time 0-15 minutes, Buffer B was applied. At time 5 minutes, 50 μL sample dissolved in Buffer B was injected onto the column with a 100 μl sample loop. From time 15-20 minutes, bound protein was step-eluted by switching to 20 mM acetic acid, pH 3.2, followed by 0.4M acetic acid, pH 2.6, from time 20-23 minutes. The column was then re-equilibrated with Buffer B from time 23-30 minutes. During the column run, the flow rate was 1 ml/min from time 0-23 minutes, then it was increased to 2 ml/min from time 23-30 minutes. In total, for each column seven injections were made: #1 Buffer B (blank); #2 for WQEHYN-column: 50 μg/μl HSA, and for YENYGY-column: 100 μg/μl HSA; #3 20 μg/μl Fibrinogen; #4 Mixture of 5 μg/μl Fibrinogen and […] HSA; #5 Mixture of 10 μg/μl Fibrinogen and 50 μg/μl HSA; #6 Mixture of 20 μg/μl Fibrinogen and 50 μg/μl HSA; #7 20 μg/μl Fibrinogen.
In parts (b) and (c), eluted protein was collected in 1.25 ml fractions, some in which pH was measured. The fractions were not re-adjusted to a neutral pH. The purity of the eluted protein was assessed by SDS-PAGE (Biorad) of non-reduced as well as of reduced samples. Broad Range Standards (Biorad) were used as molecular weight standards, and dithiothreitol (Sigma) was used as the reducing agent. Eluted protein was centrifuged and supernatant collected for determination of fibrinogen concentration by A280.

[2] = biological target: T2, human serum albumin (HSA) (Homo sapiens, UniProt P02768); assay: HSA binding to peptide resin columns (affinity chromatography); details: conditions of the experimental section, FIGS. 3-5
T2 construct: purchased Bayer Corporation (Clayton, N.C.), donated rather than bought
Protocol: as §1, §2
This column was equilibrated in Buffer A, and the following program was used for each column run: From time 0-15 minutes, Buffer A was applied. At time 5 minutes, a 50 μl sample dissolved in buffer A was injected onto the column with a 100 μl sample loop. From time 15-20 minutes, bound protein was step-eluted by switching to 0.1M acetic acid, pH 2.9, followed by 0.4M acetic acid, pH 2.6, from time 20-21 minutes. The column was then re-equilibrated with Buffer A from time 21-30 minutes. During the column run, the flow rate was 1 ml/min from time 0-21 minutes; it was increased to 2 ml/min from time 21-30 minutes. […]

[3] = biological target: T1, Human fibrinogen; assay: Fibrinogen binding to peptide resin columns (affinity chromatography, UV 280 nm)
Protocol: as §1, §2
Peptide resin columns were equilibrated in Buffer A. The following program was used for each column run: From time 0-15 minutes, Buffer A was applied. At time 10 minutes, a 50 μl sample was injected onto the column with a 50 μl sample loop. From time 15-20 minutes, bound protein was step-eluted by switching to 0.4M acetic acid (Fisher), pH 2.6. The column was then re-equilibrated with Buffer A from time 20-30 minutes. A flow rate of 1 ml/min was used. For each column two injections were made: #1 Buffer A (blank); #2 10 μg/μl Fibrinogen dissolved in Buffer A.
as §3, §4, §5

[4] = Column run #3, injected 1000 μg fibrinogen (20 μg/μl fibrinogen alone)
[5] = Column run #4, injected 250 μg fibrinogen (5 μg/μl, mixture with HSA)
[6] = Column run #5, injected 500 μg fibrinogen (10 μg/μl, mixture with HSA)
[7] = Column run #6, injected 1000 μg fibrinogen (20 μg/μl, mixture with 50 μg/μl HSA)
[8] = Column run #7, injected 1000 μg fibrinogen (20 μg/μl fibrinogen alone)
[9] = conditions of the experimental section, FIGS. 3-5

| Fibrinogen recovery, column peak [1, 4] [µg] | Fibrinogen recovery, column peak [1, 5] [µg] | Fibrinogen recovery, column peak [1, 6] [µg] | Fibrinogen recovery, column peak [1, 7] [µg] | Fibrinogen recovery, column peak [1, 8] [µg] | HSA binding to peptide column [2] | fibrinogen binding to peptide column [3, 9] | fibrinogen binding to peptide column ([3]; Buffer A (preliminary test / later tests)) | fibrinogen binding to peptide column ([3]; Buffer B) | Substance |
| --- | --- | --- | --- | --- | --- | --- | --- | --- | --- |
| 330 | 70 | 140 | 220 | 240 | none of these peptides bound HSA | bound fibrinogen | – | – | Trp-Gln-Glu-His-Tyr-Asn (WQEHYN; not fully specified (C-terminus); printed as Trp-Gln-Glu-His-Tyr-Asn) [hexapeptide ligand synthesized onto TOTDA-modified Toyopearl resin] |
| 530 | 150 | 280 | 520 | 530 | – | bound fibrinogen | – | – | Tyr-Glu-Asn-Tyr-Gly-Tyr (YENYGY; not fully specified (C-terminus); printed as Tyr-Glu-Asn-Tyr-Gly-Tyr) [hexapeptide ligand synthesized onto TOTDA-modified Toyopearl resin] |
| – | – | – | – | – | – | – | did not bind fibrinogen | did not bind fibrinogen | W-E-Q-(S)-N-P (WEQSNP) |
| 360 | 100 | 150 | 310 | 340 | none of these peptides bound HSA | bound fibrinogen | – | – | Trp-Gln-Glu-Thr-Tyr-Gln (WQETYQ; not fully specified (C-terminus); printed as Trp-Gln-Glu-Thr-Tyr-Gln) [hexapeptide ligand synthesized onto TOTDA-modified Toyopearl resin] |
